Measurements taken from patent publication US20230382970A1 (HANMI PHARM, published 2023).
Numbered stars: 1 amine (or outer) side, 2 acyl side, 3 side chain; on linkers, the order of the positions; unused ones are H or OH. Bridge positions count the residues as written; N and C are the ends. Square brackets hold non-standard residues; d marks the D form. Ends that are not written are not given here. * marks the point of attachment. HAY = 2-(4-hydroxyphenyl)acetic acid replacing N-terminal Tyr, O=C(Cc1ccc(O[*:3])cc1)[*:2]; Desaminotyrosyl = O=C(CCc1ccc(O)cc1)*; Nle = CCCC[C@H](N)C(=O)O; Aib = CC(C)(N)C(=O)O

T1: human GIP receptor (human, UniProt P48546 22-466)
T1 sequence (looked up): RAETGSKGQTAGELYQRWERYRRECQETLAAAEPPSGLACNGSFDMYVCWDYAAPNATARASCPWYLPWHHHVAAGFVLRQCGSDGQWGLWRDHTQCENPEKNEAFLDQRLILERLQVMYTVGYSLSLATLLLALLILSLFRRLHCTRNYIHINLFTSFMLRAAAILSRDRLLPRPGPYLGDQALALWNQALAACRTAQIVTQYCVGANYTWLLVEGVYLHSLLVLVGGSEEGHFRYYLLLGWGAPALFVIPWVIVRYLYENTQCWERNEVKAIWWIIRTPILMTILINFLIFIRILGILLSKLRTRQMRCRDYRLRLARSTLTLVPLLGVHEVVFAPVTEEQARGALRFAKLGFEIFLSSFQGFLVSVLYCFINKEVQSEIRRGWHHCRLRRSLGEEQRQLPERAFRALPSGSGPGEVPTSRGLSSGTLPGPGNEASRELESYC


What was measured:
[1] = target: human GLP-1 receptor (human, UniProt P43220 24-463); test: cell-based or functional assay
[2] = target: T1, human GIP receptor; test: cell-based or functional assay

Row | Binder | In vitro activity (%) compared to native-type peptide, vs human GLP-1 (cAMP EC50, human GLP-1 receptor-expressing CHO cells) [1] [%] | In vitro activity (%) compared to native-type peptide, vs human GIP (cAMP EC50, human GIP receptor-expressing CHO cells) [2] [%]
1 | Y[Aib]EGTFTSDYSIAMDAIAQQDFVNWLLAQKGKKNDWKHNITQC [GLP-1/GIP dual agonist of SEQ ID NO: 26] | 0.3 | 57.9
2 | [Desaminotyrosyl][Aib]EGTFTSDYSI[Aib]LDKIAQRAFVQWLIAGGPSSGAPPPSK [GLP-1/GIP dual agonist of SEQ ID NO: 31] | 93.3 | 38.3
3 | Y[Aib]EGTFTSDYSIALEKQAA[Aib]DFVNWLLAGGPSSGAPPPSC [GLP-1/GIP dual agonist of SEQ ID NO: 39] | 15.9 | 144
4 | Y[Aib]EGTFTSDYSI[Aib]LDKQAA[Aib]EFVNWLL[Aib]GHPSSGAPPPSC [GLP-1/GIP dual agonist of SEQ ID NO: 30] | 1 | 63.4
5 | Y[Aib]EGTFTSDYSKYLDEQAAKEFVQWLLDQHPSSGAPPPSC (bridge 16-20) [GLP-1/GIP dual agonist of SEQ ID NO: 23] | 13.5 | 106
6 | Y[Aib]EGTFTSDYSIALEKQAQQDFVNWLLAGGPSSGAPPPSC [GLP-1/GIP dual agonist of SEQ ID NO: 28] | 6.7 | 146
7 | Y[Aib]EGTFTSDYSI[Aib]LDKQAARAFVQWLIAGGPSSGAPPPSC [GLP-1/GIP dual agonist of SEQ ID NO: 34] | 34.2 | 63.4
8 | [Desaminotyrosyl][Aib]EGTFISDYSIALEAQAQQDFVNWLLAGGPSSGAPPPSK [GLP-1/GIP dual agonist of SEQ ID NO: 43] | 1.2 | 109
9 | Y[Aib]EGTFTSDYSI[Aib]LDKQAQQ[Aib]FVQWLIAGGPSSGAPPPSC [GLP-1/GIP dual agonist of SEQ ID NO: 37] | 45.2 | 174
10 | Y[Aib]EGTFTSDYSI[Aib]LDKQAA[Aib]AFVQWLIAGGPSSGAPPPSC [GLP-1/GIP dual agonist of SEQ ID NO: 20] | 31.5 | 64.2
11 | [HAY][Aib]EGTFTSDYSI[Aib]LDKIAQRAFVQWLIAGGPSSGAPPPSK [GLP-1/GIP dual agonist of SEQ ID NO: 32] | 88.3 | 20.1
12 | Y[Aib]EGTFTSDYSI[Aib]LDKQAA[Aib]EFVNWLL[Aib]GGPSSGAPPPSC [GLP-1/GIP dual agonist of SEQ ID NO: 29] | 0.5 | 96
13 | Y[Aib]EGTFTSDYSKYLDEKAAKEFVQWLLDQHPSSGQPPPSC (bridge 16-20) [GLP-1/GIP dual agonist of SEQ ID NO: 22] | 41.1 | 39.6
14 | Y[Aib]EGTFTSDYSIQLDKIAQRAFVQWLIAGGPSSGAPPPSK [GLP-1/GIP dual agonist of SEQ ID NO: 18] | 43.3 | 15.9
15 | Y[Aib]EGTFTSDYSI[Aib]LEKQAQQDFVNWLLAGGPSSGAPPPSC [GLP-1/GIP dual agonist of SEQ ID NO: 38] | 14.3 | 216
16 | Y[Aib]EGTFTSDYSI[Aib]LDKIAAKAFVQWLIAGGPSSGAPPPSC [GLP-1/GIP dual agonist of SEQ ID NO: 21] | 19.7 | 23.2
17 | Y[Aib]EGTFTSDYSKYLDEIAQKDFVQWLLDQHPSSGAPPPSC (bridge 16-20) [GLP-1/GIP dual agonist of SEQ ID NO: 24] | 7.3 | 83.9
18 | Y[Aib]EGTFTSDYSIYLDKQAA[Aib]AFVQWLIAGGPSSGAPPPSC [GLP-1/GIP dual agonist of SEQ ID NO: 19] | 32.8 | 13.9
19 | [Desaminotyrosyl][Aib]EGTFTSDYSI[Aib]LD[Nle]QAA[Aib]AFVQWLIAGGPSSGAPPPSK [GLP-1/GIP dual agonist of SEQ ID NO: 42] | 69.5 | 35.9
20 | [Desaminotyrosyl][Aib]EGTFISDYSIALE[Nle]QAQQDFVNWLLAGGPSSGAPPPSK [GLP-1/GIP dual agonist of SEQ ID NO: 44] | 1.4 | 74.2
21 | [Desaminotyrosyl][Aib]EGTFTSDYSI[Aib]LDAQAA[Aib]AFVQWLIAGGPSSGAPPPSK [GLP-1/GIP dual agonist of SEQ ID NO: 41] | 117 | 58.7
22 | Y[Aib]EGTFTSDYSIQLDKIAQKAFVQWLIAGGPSSGAPPPSC [GLP-1/GIP dual agonist of SEQ ID NO: 17] | 19.8 | 7.7
23 | Y[Aib]EGTFTSDYSIALEKQAQRDFVNWLLAGGPSSGAPPPSC [GLP-1/GIP dual agonist of SEQ ID NO: 40] | 97.7 | 181
24 | Y[Aib]EGTFTSDYSIAMDAIAQQDFVNWLLAQRGKKSDWKHNITQC [GLP-1/GIP dual agonist of SEQ ID NO: 27] | 0.2 | 55.5
25 | Y[Aib]EGTFTSDYSI[Aib]LDKQHA[Aib]AFVQWLIAGGPSSGAPPPSC [GLP-1/GIP dual agonist of SEQ ID NO: 35] | 9.6 | 64.2
26 | Y[Aib]EGTFTSDYSKYLDEIAAKDFVQWLLDHHPSSGQPPPSC (bridge 16-20) [GLP-1/GIP dual agonist of SEQ ID NO: 3] | 6.8 | 28.7
27 | Y[Aib]EGTFTSDYSKYLDEEAVKLFVQWLLDQHPSSGAPPPSC (bridge 16-20) [GLP-1/GIP dual agonist of SEQ ID NO: 25] | 3.2 | 59.4
28 | Y[Aib]EGTFTSDYSI[Aib]LDKQAQQAFVQWLIAGGPSSGAPPPSC [GLP-1/GIP dual agonist of SEQ ID NO: 36] | 79.9 | 217
29 | Y[Aib]EGTFTSDYSKYLDEIRAKDFVQWLLDHHPSSGQPPPC (bridge 16-20) [GLP-1/GIP dual agonist of SEQ ID NO: 4] | 1.9 | 18.5
